What was measured:
[1] = melting temperature (DSF); higher = more thermostable
Summary of the method: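 On a Bio-Rad CFX96, fluorescence of 45 μL enzyme (0 to 0.3 mg/mL) mixed with 5 μL 5X Sypro Orange in sealed PCR plates was followed from 25 °C through 250 cycles of 0.3 °C, with a 0.3 °C/s ramp. The enzymes had been expressed in E. coli C41(DE3), taken up on nickel beads and released by SUMO protease. Melting temperature, measured by differential scanning fluorimetry, is the value given.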

[2] = purified protein yield per well (BCA); higher = higher soluble expression
Summary of the method: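 Candidate enzymes were produced in E. coli C41(DE3) grown in 2 mL autoinduction cultures containing 100 µg/mL kanamycin, first at 37 °C for 2 h and then at 18 °C for 40 h. After cell lysis, protein was captured on Ni-charged magnetic beads and freed by SUMO protease cleavage on an OT-2 robot. Purified protein yield per well was read with the Pierce Rapid Gold BCA kit. Values under 25 ug (0.1 mg/mL) fall below the detection threshold.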

[3] = PET hydrolysis, aromatic products released after 48 h (umol product/mg enzyme); higher = more PET depolymerization activity; conditions: substrate: cryPow
Summary of the method: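 PET hydrolysis activity was taken as the aromatic product in the supernatant and expressed per mg enzyme. This product was measured by absorbance at 260 and 280 nm against buffer blanks. Each reaction held 5 μg (50 μL) of tagless, SUMO-cleaved candidate enzyme purified on nickel beads, plus 3.5 mg amorphous PET film or crystalline PET powder in 450 μL buffer: 50 mM NaCitrate (pH 4.5, 5.5), 50 mM NaPhosphate (pH 6.5, 7.5) or glycine (pH 8.5). Plates were sealed and left 48 h at 40 or 60 °C without shaking.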

ADNPYQRGPDPTVASVAATRGTFATAQLTVPAGNGFGGGYIYYPTDTSRGTYGAVAIVPGYSALFANEEAWMGPWLASFGFVVIGVETITRNDGADARATQLLAALDYLTQRSQVRDRVDATRLAVMGHSAGGAGTILASERRPSLKAAVGLAPGTPGSLSLATNHVPMMIIGGQTDPTVTPSYLNNLYATMPAATPSDFVQIAGADHLFFTRANNTEMKVLIPWLKIFLDNDTRYTQFLCPSLADPQGISLYRSKCPYLPPGTTSPSPSASSTLSPSPSVSPTASPSPSVSLTPSPSNPATGCAATYRTVNSWPGGFQGEVTVSAGGAPVDGWTVGWTLGSGQSITQLWNGTLTTSGSTVTVRNPAYGGSIPAGGSVVFGFLGTGTPSVPALTCTSP [ESM031]
melting temperature [1]: 47.8 C | purified protein yield per well [2]: 66.9 µg | PET hydrolysis ([3]; 40 °C, pH 4.5): < 3 | PET hydrolysis ([3]; 40 °C, pH 5.5): < 3 | PET hydrolysis ([3]; 40 °C, pH 6.5): < 3 | PET hydrolysis ([3]; 40 °C, pH 7.5): < 3 | PET hydrolysis ([3]; 60 °C, pH 4.5): < 3 | PET hydrolysis ([3]; 60 °C, pH 5.5): < 3 | PET hydrolysis ([3]; 60 °C, pH 6.5): < 3 | PET hydrolysis ([3]; 60 °C, pH 7.5): < 3

QDNSQGRYRPEGRQIGVAAGREFGERIYEVRTYETNPGIAEFADVMVFYPLTLSFDRPNGAIAFSPGFRAAADNYEWWGPALASLGYNVFILNTNEPTDDLDARADALAALVDFIKAENANPDSPVANKIDEEKIALMGHSMGGGAALAAADRLGDAVGAVIPLALYCCNPGGSFEGDYGSLSAAALVIASAEDTVAPPEAHARLLYDSLGSENKIYMEFAAGDHMFPANGGPELATMGRFTLAFLKAYLDGVAGLEQHVTSPSDEYAERFSTYLAP [TEP035]
melting temperature [1]: 52.3 C | purified protein yield per well [2]: 51.6 µg | PET hydrolysis ([3]; 40 °C, pH 4.5): < 3 | PET hydrolysis ([3]; 40 °C, pH 5.5): < 3 | PET hydrolysis ([3]; 40 °C, pH 6.5): < 3 | PET hydrolysis ([3]; 40 °C, pH 7.5): < 3

ADNPYQRGPAPTAASISADTGPFATATTVAEGTGFGGATIYYPTDTSQGTFGAIGMLPGWTAPWSAYAWLGPRLASQGFVVIGVDTNDPNDYPAARATQVLAALDHLTESSAVRDRVDPDRLAVAGHSMGGGGSLEAALSRPSLKAVYGIEPYDDITSDFSNLTVPTFIQAGQDDTLVTPSYLESLYATLPSTSEHAYLEIAGADHMFVGSPNVILARTLISWMKIFVDDDTRYTQFLCPLSDDSGVSQYRNTCPLTPGGSTGSPTATAPSPPASSSNPPGTPSSPAPTDGTCRVTYTTNAWDSGLTASVTIANTGTTASTGWSLAFTLPDGQTITSGWNATYSPSSGQVTATGVSHNATIPAGESINIGFQATHTGDTGAPTTFALNGQTCTIT [DP021]
melting temperature [1]: 47.5 C | purified protein yield per well [2]: 170 µg | PET hydrolysis ([3]; 40 °C, pH 5.5): 5 | PET hydrolysis ([3]; 40 °C, pH 6.5): < 3 | PET hydrolysis ([3]; 40 °C, pH 7.5): < 3 | PET hydrolysis ([3]; 40 °C, pH 8.5): < 3 | PET hydrolysis ([3]; 60 °C, pH 5.5): < 3 | PET hydrolysis ([3]; 60 °C, pH 6.5): < 3 | PET hydrolysis ([3]; 60 °C, pH 7.5): < 3 | PET hydrolysis ([3]; 60 °C, pH 8.5): < 3

APGPSAPCSNCTRGPNPTEASLKSDRGPFTTARFSVSGFLKGFGDSTVYYPTNTTGRMGAIAVIPGYLSYESSIEWWGPRLASHGFVVMTMNTSTIYDQPDSRATQLSKALDYLIAQSNTSSSPIYNKIDSTRLGAIGWSMGGGGSLKLSTQRSLNAIIPQAPWYSGSNSFNTIKTPALILACSADTVAPVSVHASPFYNRIPGSTPKAFLEIYGGSHFCANSGYPNEDLLGLYGIAWMKRFIDFDNRYSQFLCGPNHEGDFAISDYRQNCPY [ESM096]
melting temperature [1]: 52 C | purified protein yield per well [2]: 33.4 µg | PET hydrolysis ([3]; 40 °C, pH 4.5): < 3 | PET hydrolysis ([3]; 40 °C, pH 5.5): < 3 | PET hydrolysis ([3]; 40 °C, pH 6.5): 6 | PET hydrolysis ([3]; 40 °C, pH 7.5): 22

ATTSYQRGPNPTEQSVRAANGPFAYSQFAIPDAEATGFGEGTIYYPNNTSVGTFGGVVIAPGFNADQNSTVWLGKRLASHGFVAVTITTHELNDQPYERGKQILAALDYLTGQSPAFVRSRLDPARLAAVGHSMGGGGTLFAAAQRPSLKAIVPLAPWALAKNWSNVQVPTMILSGAQDASAPPAEHAEKFYASLTSAPEKAYAKLDVNHVRFAWEHPLIGKLVVSWLKRFVDEDTRYTQFLCPTATGAVLLEYRATCPLG [DP026]
melting temperature [1]: 66.1 C | purified protein yield per well [2]: 164 µg | PET hydrolysis ([3]; 40 °C, pH 5.5): 3 | PET hydrolysis ([3]; 40 °C, pH 6.5): < 3 | PET hydrolysis ([3]; 40 °C, pH 7.5): < 3 | PET hydrolysis ([3]; 40 °C, pH 8.5): < 3 | PET hydrolysis ([3]; 60 °C, pH 5.5): < 3 | PET hydrolysis ([3]; 60 °C, pH 6.5): < 3 | PET hydrolysis ([3]; 60 °C, pH 7.5): < 3 | PET hydrolysis ([3]; 60 °C, pH 8.5): < 3

— the supplement of paper PMC12455559
